According to patent publication US20090246142A1, “Triggered Self-Assembly of Nanoparticles In Vivo” (MASSACHUSETTS INSTITUTE OF TECHNOLOGY, priority 2006, published 2009):
Square brackets hold non-standard residues; d marks the D form. pY = N[C@@H](Cc1ccc(OP(=O)(O)O)cc1)C(=O)O; Ahx = NCCCCCC(=O)O

What was measured:
Abl kinase = experiment: Kinase-directed TSAC assembly, MRI T2 mapping; format: biochemical; details: free phosphopeptide added to Abl kinase-assembled TSACs
Method: Kinase reaction was initiated by adding indicated amount of Abl kinase (New England Biolabs). TSAC assemblies were characterized by DLS over time or MRI.
All TSAC solutions were prepared in final concentration of 10 μg Fe/ml (12 nM TSAC concentration) in 70 μl of kinase reaction buffer. TSAC mixtures were incubated at 30° C. for 3 hours after kinase additions (0, 0.05, 0.1, 0.2, 0.5 U/μl), and then MRI images were taken using a 4.7 T Bruker magnet (7 cm bore) using T2-mapping Carr-Purcell-Meiboom-Gill (CPMG) pulse sequence. To reverse assembly, 4 U/μl YOP phosphatase or 0.1 mM free pY-peptide was added to an assembled TSAC solution containing 0.2 U/μl Abl kinase. The MRI image was taken after 10 minutes at room temperature.

Crk SH2 = Crk SH2 (Homo sapiens, UniProt P46108); details: free peptide; cited from earlier work
Crk SH2 domain = biological target: T1, Crk SH2 domain (Homo sapiens, UniProt P46108); experiment: SH2-binding peptide-mediated TSAC assembly, dynamic light scattering
T1 construct: The Crk SH2 domain was genetically modified to contain an N-terminal cysteine; GST (N, cleaved yes); made in house; host or cells: E. coli BL21-Gold(DE3)
T1 sequence (P46108 13-118 limits assumed): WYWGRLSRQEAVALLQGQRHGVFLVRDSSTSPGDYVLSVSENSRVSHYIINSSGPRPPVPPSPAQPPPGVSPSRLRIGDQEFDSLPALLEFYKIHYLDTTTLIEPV

Crk SH2, sequence (P46108 13-118 limits assumed): as above
Abl kinase, sequence (P00521 128-379): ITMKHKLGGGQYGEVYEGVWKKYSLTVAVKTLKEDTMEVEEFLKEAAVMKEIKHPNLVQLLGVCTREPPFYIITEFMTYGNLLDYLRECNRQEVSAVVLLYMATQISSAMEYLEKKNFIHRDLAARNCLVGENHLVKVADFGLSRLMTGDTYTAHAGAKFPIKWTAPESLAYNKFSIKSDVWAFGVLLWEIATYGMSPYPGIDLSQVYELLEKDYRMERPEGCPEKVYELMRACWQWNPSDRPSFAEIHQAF

Substance | effect of free substrate on kinase-directed T2 enhancement (Abl kinase) | binding affinity to Crk SH2 (Crk SH2) | reversal of pY TSAC / SH2 TSAC assembly by added free peptide (Crk SH2 domain; 200 μM free peptide added after 10 minute incubation) | effect of free peptide on pY TSAC / SH2 TSAC assembly (Crk SH2 domain; 200 μM free peptide present)
TAMRA-(Ahx)SRVGEEEHVpYSFPNKQKSAEC-CONH2 [free pY-Abl substrate] | lost |  |  | 
TAMRA-C(Ahx)QpYDHPNI-CONH2 ({TAMRA}-C[Ahx]Q[pY]DHPNI-NH2; not fully specified) [free pY peptide] |  | low μM | rapidly disassembled | inhibited
